Measurements reported in patent US7189694B2, “Inhibitors of autophosphorylation protein kinases” (University of Florida Research Foundation, Inc., priority 2003, dated 2007).
“Also recorded” adds a separate entry of the source.

Tests used:
[1] = molecular target: T1, VEGFR (Homo sapiens, UniProt P17948); experiment: In vitro VEGFR autophosphorylation kinase assay; type: biochemical; conditions: peptide at 50 μM; FIG. 2B
T1 construct: purchased Calbiochem, San Diego, Calif
Protocol: (§1) In vitro Kinase Assays: Autophosphorylation activity of EGFR and VEGFR-1 was measured in a reaction mixture containing kinase buffer (20 mM Tris-HCl [pH 7.5], 2 mM dithioreitol, 50 mM potassium chloride, 0.3 mM sodium orthovanadate, 5 mM magnesium chloride, 10 mM glycerophosphate, 2 mM EGTA, […] manganese chloride), Tkip, substrates, and 5 μCi of [^32P]γ-ATP (specific activity 6000 Ci/mmol; 1 mCi=37 Mbq) (Amersham Biosciences, Piscataway, N.J.). EGFR and VEGFR in vitro kinase assays were carried out in 22.5 μL reaction volumes containing 10 μL Tkip, 2.5 μL substrates, and 10 μL [^32P]γ-ATP incubated at 30° C. for 10 min. EGFR (supplied precomplexed with EGF) was obtained from Upstate Biotechnology (Lake Placid, N.Y.). VEGFR and VEGF were obtained from Calbiochem (San Diego, Calif.) and Peprotech (Rocky Hill, N.J.), respectively.
(§2) Determination of JAK2 autophosphorylation activity was performed in reaction mixtures containing recombinant human JAK2 immobilized on agarose beads (Upstate Biotechnology, Lake Placid, N.Y.), 1 μCi/μl of [^32P]γ-ATP (Amersham Biosciences, Piscataway, N.J.), and either Tkip or JAK 2 WT peptide incubated in kinase buffer (10 mM HEPES [pH 7.4], 50 mM sodium chloride, 0.1 mM sodium orthovanadate, 5 mM magnesium chloride, 5 mM manganese chloride). […]

[2] = molecular target: T2, JAK2/IFNGR-1 (Homo sapiens, UniProt O60674); experiment: JAK2 kinase assay processed on P81 phosphocellulose discs (32P incorporation); type: biochemical; conditions: peptide at 50 μM; FIG. 2D
T2 construct: purchased Upstate Biotechnology, Lake Placid, N.Y
T2 sequence (O60674 whole entry): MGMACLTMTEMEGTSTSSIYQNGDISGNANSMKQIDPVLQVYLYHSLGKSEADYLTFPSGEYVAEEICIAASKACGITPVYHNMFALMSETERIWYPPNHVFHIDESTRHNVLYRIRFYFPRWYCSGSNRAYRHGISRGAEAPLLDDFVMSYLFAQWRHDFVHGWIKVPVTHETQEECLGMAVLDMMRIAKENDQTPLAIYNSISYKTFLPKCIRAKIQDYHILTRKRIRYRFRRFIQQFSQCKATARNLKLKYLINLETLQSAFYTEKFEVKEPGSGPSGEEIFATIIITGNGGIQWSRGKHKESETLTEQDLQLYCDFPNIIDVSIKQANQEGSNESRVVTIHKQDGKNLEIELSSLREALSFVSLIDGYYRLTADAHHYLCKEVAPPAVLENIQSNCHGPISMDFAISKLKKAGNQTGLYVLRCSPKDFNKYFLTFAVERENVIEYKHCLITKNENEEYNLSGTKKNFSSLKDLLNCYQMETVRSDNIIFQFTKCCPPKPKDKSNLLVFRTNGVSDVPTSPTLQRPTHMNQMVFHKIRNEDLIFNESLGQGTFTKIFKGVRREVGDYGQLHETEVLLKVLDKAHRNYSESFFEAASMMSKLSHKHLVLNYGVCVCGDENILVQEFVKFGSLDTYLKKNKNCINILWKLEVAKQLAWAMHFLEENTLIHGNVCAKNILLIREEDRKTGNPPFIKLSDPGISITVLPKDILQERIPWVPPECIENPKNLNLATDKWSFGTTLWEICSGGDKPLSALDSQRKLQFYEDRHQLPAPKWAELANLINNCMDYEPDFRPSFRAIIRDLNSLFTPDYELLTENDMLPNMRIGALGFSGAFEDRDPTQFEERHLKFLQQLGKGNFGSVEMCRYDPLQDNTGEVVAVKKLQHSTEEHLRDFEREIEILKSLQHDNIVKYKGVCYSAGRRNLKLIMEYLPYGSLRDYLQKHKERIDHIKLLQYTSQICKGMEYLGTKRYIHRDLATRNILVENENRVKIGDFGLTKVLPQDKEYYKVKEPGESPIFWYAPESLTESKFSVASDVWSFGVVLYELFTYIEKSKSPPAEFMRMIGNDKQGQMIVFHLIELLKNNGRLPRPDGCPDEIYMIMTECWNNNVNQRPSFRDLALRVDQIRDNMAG
Protocol: (§3) Src kinase activity was performed with a Src substrate peptide (KVEKIGEGTYGVVYK) (SEQ ID NO. 73) using a Src kinase assay kit according to the manufacturer's specifications (Upstate Biotechnology, Lake Placid, N.Y.) according to the manufacturer's specifications. Briefly, Src substrate peptide was incubated in Src kinase buffer (100 mM Tris-HCl [pH 7.2], 125 mM MgCl2, 25 mM MnCl2, 2 mM EGTA, 0.02 mM Na3VO4, and 2 mM dithioreitol), 5 μCi of [^32P]γ-ATP (75 mM MnCl2, 500 μM ATP), recombinant human Src (Upstate Biotechnology, Lake Placid, N.Y.), and Tkip, JAK2 WT peptide, or in the absence of peptide for 10 min at 30° C. Reaction mixtures were spotted on P81 phosphocellulose discs (supplied with kit) to bind phosphorylated Src substrate peptide, washed three times for 5 min with 0.75% phosphoric acid, washed twice with acetone for 1 min, and placed in vials to which 4 ml of ScintiVerse® (Fisher, Pittsburgh, Pa.) was added. The phosphocellulose discs were analyzed using a liquid scintillation counter to measure ^32P-labeled proteins. For comparison with Src, JAK2 was also assayed using the same procedure. The assay was setup as described above for the Src kinase assay. However, reactions were incubated in the presence of 2 mM dithioreitol in the buffer to release JAK2 from the agarose beads. Following the appropriate incubation period reactions were gently centrifuged. […]

[3] = molecular target: T3, recombinant human JAK2 (Homo sapiens, UniProt O60674); experiment: In vitro JAK2 kinase assay (32P, SDS-PAGE, autoradiography); type: biochemical; conditions: peptide at 50 μM
T3 construct: purchased Upstate Biotechnology, Lake Placid, N.Y
T3 sequence (O60674 whole entry): as above
Protocol: Determination of JAK2 autophosphorylation activity was performed in reaction mixtures containing recombinant human JAK2 immobilized on agarose beads (Upstate Biotechnology, Lake Placid, N.Y.), 1 μCi/μl of [^32P]γ-ATP (Amersham Biosciences, Piscataway, N.J.), and either Tkip or JAK 2 WT peptide incubated in kinase buffer (10 mM HEPES [pH 7.4], 50 mM sodium chloride, 0.1 mM sodium orthovanadate, 5 mM magnesium chloride, 5 mM manganese chloride). JAK2 kinase assays were performed in 35 μL reaction volumes containing 10.5 μL Tkip, 20 μL JAK2 agarose beads, 1 μL sIFNGR-1, and 3.5 μL [^32P]γ-ATP incubated at 30° C. for 30 min with intermittent agitation. […] EGFR, VEGFR, and JAK2 kinase reactions were terminated with the addition of 5 μl 6×SDS sample buffer (0.5 M Tris-HCl [pH 6.8], 36% glycerol, 10% SDS, 9.3% DTT, 0.012% bromophenol blue). Incubation of JAK2 agarose beads in SDS sample buffer (100° C.) was designed to elute bound proteins from the agarose beads. The reaction mixtures were separated on a 10% SDS polyacrilamide gel. Autoradiography was used to determine phosphorylation activity.

[4] = molecular target: T4, EGFR (Homo sapiens, UniProt P00533); experiment: In vitro EGFR autophosphorylation kinase assay; type: biochemical; conditions: peptide at 50 μM; FIG. 2E
T4 construct: human EGFR isolated from A431 cells; purchased Upstate Biotechnology, Lake Placid, N.Y; host or cells: A431 cells (endogenous receptor, isolated)
Protocol: as §1, §2

[5] = molecular target: T5, c-src (Homo sapiens, UniProt P12931); experiment: Src kinase assay with substrate peptide (P81 discs); type: biochemical; conditions: peptide at 50 μM; FIG. 2C
T5 construct: purchased Upstate Biotechnology, Lake Placid, N.Y
Protocol: as §3

[6] = molecular target: T6, p-JAK2 WT peptide (phosphorylated at 1007Y) (Homo sapiens, UniProt O60674); experiment: Solid phase binding of biotinylated phosphorylated JAK2 WT peptide to immobilized Tkip; conditions: FIG. 4
T6 construct: made in house; host or cells: chemical synthesis (Fmoc)
Protocol: (§4) Binding assays: For ELISA binding assays Tkip and other peptides to be tested were bound to 96-well plates in 0.1 M carbonate binding buffer (pH 9.6) at a final concentration of 3 μg/well (50 μl). Wells were then washed three times with wash buffer containing 0.9% NaCl and 0.05% tween-20 in PBS and blocked with 2% gelatin and 0.05% tween-20 in PBS for 1 h at room temperature. Wells were then washed three times with wash buffer and incubated with various concentrations of biotinylated JAK2 WT peptide and biotinylated P-JAK2 WT peptide for 1 h at room temperature in blocking buffer. Following incubation, wells were washed five times with wash buffer to remove any unbound biotinylated peptides. Bound biotinylated peptides were detected by incubation with a 1:500 dilution of NEUTRAVIDIN biotin binding-protein conjugated with horseradish peroxidase (Molecular Probes, Eugene, Oreg.) in blocking buffer for 1 h at room temperature. Wells were then washed five times with wash buffer and developed with a solution of o-phenylenediamine (OPD) in stable peroxidase buffer (Pierce, Rockford, Ill.). The assay was stopped with the addition of 2 M H2SO4 (50 μl) to each well. Absorbance was measured using a 450 microplate reader (Bio-rad, Hercules, Calif.) at 490 nm. Control experiments were carried out as described above in the absence of immobilized peptides.

[7] = test system: experimental allergic encephalomyelitis; experiment: Experimental allergic encephalomyelitis (EAE) in MBP-immunized NZW mice; type: in vivo
Protocol: NZW mice were injected intraperitoneally with PBS or Tkip (63 μg/mouse) every other day starting the day of immunization with myelin basic protein (MBP) for induction of EAE. Mice were followed daily for signs of EAE, and mean severity of paralysis for each group was graded based on the following scale: 1, loss of tail tone, 2, hind leg weakness, 3, paraparesis, 4, paraplegia, 5, moribund, death. […] All mice in the control group had disease (disease incidence=4/4), while one mouse in the Tkip group had disease (disease incidence=1/5).
NZW mice were immunized with myelin basic protein (MBP) (300 ug) emulsified in complete Freund's adjuvant for the induction of experimental allergic encephalomyelitis (EAE). Tkip peptide (63 μg/mouse) was administered to mice every other day starting the day of immunization. Phosphate buffered saline (PBS) was used as the vehicle of transfer and as the control agent for the treatment of the control group. Mice were followed daily for signs of EAE and mean severity of paralysis for each group was graded based on the scale presented in the legend of FIG. 9. […] Furthermore, the mean severity of disease for the control group (2.1) was twice as high as that of the Tkip group (0.8) at its peak. The time of onset of disease for the control group and Tkip-treated group was similar (24 days post immnunization). Thus, treatment of MBP-immunized mice with Tkip peptide protects them from the autoimmune disease, EAE.

[8] = molecular target: T7, JAK2 WT peptide (JAK2 autophosphorylation site 1001LPQDKEYYKVKEP) (Homo sapiens, UniProt O60674); experiment: ELISA binding of biotinylated JAK2 WT peptide to solid-phase peptides
T7 construct: made in house; host or cells: chemical synthesis (Fmoc)
Protocol: as §4

T1 sequence (P17948 27-1338): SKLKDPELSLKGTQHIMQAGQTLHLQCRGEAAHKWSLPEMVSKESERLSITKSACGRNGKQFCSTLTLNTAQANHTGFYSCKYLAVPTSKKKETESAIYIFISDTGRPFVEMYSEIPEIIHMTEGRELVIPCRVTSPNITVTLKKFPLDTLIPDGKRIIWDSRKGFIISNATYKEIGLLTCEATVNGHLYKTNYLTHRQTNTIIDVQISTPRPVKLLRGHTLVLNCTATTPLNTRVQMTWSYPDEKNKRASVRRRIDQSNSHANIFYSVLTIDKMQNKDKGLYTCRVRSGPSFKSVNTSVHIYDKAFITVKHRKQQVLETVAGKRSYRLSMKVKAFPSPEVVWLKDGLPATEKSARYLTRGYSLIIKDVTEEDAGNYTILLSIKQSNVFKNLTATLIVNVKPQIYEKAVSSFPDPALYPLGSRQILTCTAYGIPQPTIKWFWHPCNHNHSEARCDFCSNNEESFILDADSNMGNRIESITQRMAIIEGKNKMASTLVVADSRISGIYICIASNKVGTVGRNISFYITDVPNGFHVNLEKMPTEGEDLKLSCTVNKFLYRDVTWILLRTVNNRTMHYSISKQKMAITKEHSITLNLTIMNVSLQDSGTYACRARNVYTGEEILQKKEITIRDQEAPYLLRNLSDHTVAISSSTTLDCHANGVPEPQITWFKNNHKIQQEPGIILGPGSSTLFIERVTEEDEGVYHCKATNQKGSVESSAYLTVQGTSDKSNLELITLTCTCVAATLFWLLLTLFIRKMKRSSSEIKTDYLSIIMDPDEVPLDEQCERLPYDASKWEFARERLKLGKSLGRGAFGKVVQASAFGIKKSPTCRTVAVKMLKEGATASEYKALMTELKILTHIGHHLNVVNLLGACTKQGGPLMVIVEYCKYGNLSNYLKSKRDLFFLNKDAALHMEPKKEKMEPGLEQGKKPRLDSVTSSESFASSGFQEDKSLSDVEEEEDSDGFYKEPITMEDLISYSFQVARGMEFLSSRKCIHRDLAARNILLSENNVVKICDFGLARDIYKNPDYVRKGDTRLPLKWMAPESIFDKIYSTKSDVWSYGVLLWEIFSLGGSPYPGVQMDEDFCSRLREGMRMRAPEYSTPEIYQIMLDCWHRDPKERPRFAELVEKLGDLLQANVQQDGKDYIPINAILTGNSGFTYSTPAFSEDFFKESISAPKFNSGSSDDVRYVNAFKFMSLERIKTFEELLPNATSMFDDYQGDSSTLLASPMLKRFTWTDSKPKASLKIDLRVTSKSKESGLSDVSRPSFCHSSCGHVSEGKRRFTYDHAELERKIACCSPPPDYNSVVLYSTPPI

WLVFFVIFYFFR (amino acid sequence of a peptide that can be used according to the present invention) [Tkip]
inhibition of VEGFR autophosphorylation [1]: did not inhibit | inhibition of 32P incorporation into JAK2/IFNGR-1 [2]: greater than 95% | inhibition of JAK2 autophosphorylation [3]: completely inhibited; also recorded: also inhibited | inhibition of JAK2 phosphorylation of IFNGR-1 [3]: completely inhibited; also recorded: also inhibited | inhibition of EGFR autophosphorylation [4]: completely inhibited | inhibition of c-src phosphorylation of a protein substrate [5]: failed to inhibit | fifty percent endpoint concentration, fold lower for p-JAK2 WT binding versus unphosphorylated JAK2 WT binding [6]: approximately 9 fold | binding of Tkip to p-JAK2 WT ([6]; immobilized Tkip): binding was most efficient to p-JAK2 WT | time of onset of disease ([7]; 63 μg/mouse every other day): 24 days post immnunization | mean severity of disease (paralysis scale 1-5) ([7]; 63 μg/mouse every other day, at its peak): 0.8 | incidence of disease (EAE) ([7]; 63 μg/mouse intraperitoneally every other day from day of immunization): 1/5 | binding of biotinylated JAK2 WT peptide to solid-phase peptide ([8]; FIG. 1A, ELISA, peptides coated on 96-well plates): bound only to Tkip peptide in a dose-dependent manner | binding of Tkip to unphosphorylated JAK2 WT ([8]; FIG. 4, immobilized Tkip): bound both JAK2 WT and p-JAK2 WT in a dose-dependent manner
